For the data set the following is noted: Aspergillus aculeatus; pH 4.5; Thermal; DSC; sodium acetate buffer 50 mM; transition: 2; reversible: no; whole UniProt chain shown.

The term Tm denotes the temperature at the midpoint of the melting transition.

B1: Arabinogalactan endo-beta-1,4-galactanase wild type, P48842 (protein)
chain: MFASLLLAALPLLTHAALTYRGADISSLLLLEDEGYSYKNLNGQTQALETILADAGINSIRQRVWVNPSDGSYDLDYNLELAKRVKAAGMSLYLDLHLSDTWADPSDQTTPSGWSTTDLGTLKWQLYNYTLEVCNTFAENDIDIEIISIGNEIRAGLLWPLGETSSYSNIGALLHSGAWGVKDSNLATTPKIMIHLDDGWSWDQQNYFYETVLATGELLSTDFDYFGVSYYPFYSASATLASLKTSLANLQSTYDKPVVVVETNWPVSCPNPAYAFPSDLSSIPFSVAGQQEFLEKLAAVVEATTDGLGVYYWEPAWIGNAGLGSSCADNLMVDYTTDEVYESIETLGEL
For the protein B1, the Tm is 60.9 °C.

The values are drawn from FireProtDB (doi:10.1016/j.csbj.2015.03.010).
